Data as given in PMC6075865.

Biological target: preformed binary t-SNARE complex of Syx 1a (amino acids 1-262) and SNAP25 (amino acids 1-206), O35526
Assay: SDS-resistant SNARE complex formation (SDS-PAGE without boiling, Coomassie staining); t-SNAREs preformed 1 hr (syntaxin 1 3 uM, SNAP25 15 uM), peptide (50 uM) or none added for 30 min, then GST-SybII (3 uM); 25 C; 100 mM NaCl, 1 mM DTT, 1 mM EDTA, 0.5% Triton X-100, 20 mM Tris pH 7.4; time …
Settings: other: SDS-resistant SNARE complex formation (SDS-PAGE without boiling, Coomassie staining)

preformed binary t-SNARE complex of Syx 1a (amino acids 1-262) and SNAP25 (amino acids 1-206), O35526, sequence (O35526 whole entry, looked up, the tested form may be a part, one chain of several): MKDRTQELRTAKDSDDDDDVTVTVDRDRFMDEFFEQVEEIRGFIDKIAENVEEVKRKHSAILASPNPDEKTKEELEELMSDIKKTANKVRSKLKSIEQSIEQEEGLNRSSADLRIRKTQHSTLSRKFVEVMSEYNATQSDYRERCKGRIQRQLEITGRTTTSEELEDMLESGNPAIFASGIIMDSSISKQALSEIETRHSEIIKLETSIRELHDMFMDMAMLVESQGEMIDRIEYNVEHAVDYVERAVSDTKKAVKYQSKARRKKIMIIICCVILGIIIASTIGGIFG

Protein	amount of assembled SNARE complexes (m10 with m11) after 240 min with 50 uM peptide, % of control	rate of SNARE complex assembly (m10 with m11) with 50 uM peptide, % of control
IPAGCGDEEEEEEESILDTVLKYLPGPLQDMFKK [CpxII CTD peptide (amino acids 101-134), in solution]	CTD-peptide 92.3 ± 9.1	51.4 ± 3.8% of control
KVPYELGGQLPELKTSDPIEGEDEDELFMKEIAC [scrambled variant of the CpxII CTD peptide, in solution]	scr-peptide 88.8 ± 9.6	106.6 ± 16.7% of control
